Reference: patent US20240317871A1 (IMMUNOMIC THERAPEUTICS, published 2024)
Positions count from the first letter of the chain named. Blank lines part the entries; values can stand above or below the binder they belong to.

How the values were obtained:
[1] = target: T1, cynomolgus monkey HVEM (cynomolgus monkey, UniProt A0A2K5W0R1 39-203); assay: ELISA
T1 sequence: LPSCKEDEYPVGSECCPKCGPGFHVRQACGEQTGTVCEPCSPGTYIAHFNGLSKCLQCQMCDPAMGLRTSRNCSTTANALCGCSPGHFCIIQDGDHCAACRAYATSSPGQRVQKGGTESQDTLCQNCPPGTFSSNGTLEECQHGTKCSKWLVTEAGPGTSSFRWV

[2] = target: T2, human HVEM (human, UniProt Q92956 39-202, limits assumed); assay: ELISA
T2 sequence (looked up): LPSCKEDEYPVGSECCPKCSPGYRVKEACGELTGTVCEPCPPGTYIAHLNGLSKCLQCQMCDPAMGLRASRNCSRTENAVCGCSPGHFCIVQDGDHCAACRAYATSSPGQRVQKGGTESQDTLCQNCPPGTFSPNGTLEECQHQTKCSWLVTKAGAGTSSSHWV

[3] = target: T3, murine HVEM (murine, UniProt Q80WM9 39-206, limits assumed); assay: ELISA
T3 construct: also called Mouse
T3 sequence (looked up): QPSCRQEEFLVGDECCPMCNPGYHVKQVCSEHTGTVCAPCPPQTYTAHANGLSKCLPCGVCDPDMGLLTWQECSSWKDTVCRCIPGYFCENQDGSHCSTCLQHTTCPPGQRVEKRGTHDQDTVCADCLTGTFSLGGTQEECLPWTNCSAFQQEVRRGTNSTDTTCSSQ

[4] = target: T4, His-tagged human HVEM (human, UniProt Q92956 39-202, limits assumed); assay: BLI OctetRed96, mAb captured, 200 nM His-HVEM
T4 construct: Analyte of the BLI assay, 200 nM in PBS; not shown: His tag
T4 sequence (looked up): T2 sequence (looked up)
How it was run: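 Murine anti-human HVEM antibodies captured from culture supernatant on anti-mouse IgG Fc biosensors, then associated with 200 nM His-tagged human HVEM in PBS, followed by dissociation in PBS. koff, kon and KD obtained by curve fitting.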

[5] = target: T5, Human HEVM recombinant protein (Sino Biological, 10334-H02H) (human, UniProt Q92956 39-202); assay: competition ELISA, competitor BTLA-His
T5 construct: construct known only by catalogue number; also called HVEM; human HVEM
T5 sequence (looked up): T2 sequence (looked up)
How it was run: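 HVEM protein coated at 4 ug/ml; antibody serially diluted 3-fold over 7 points (final top 100 nM for BTLA, 325 nM for LIGHT), premixed with 400 nM His-tagged competitor and incubated 1 Hr at RT. Bound competitor detected by HRP-anti-His/TMB at 450 nm; IC50 calculated.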

[6] = target: T5, Human HEVM recombinant protein (Sino …); assay: competition ELISA, competitor LIGHT-His
Description: The competitive activity of HVEM antibody to BTLA or LIGHT was evaluated with ELISA-based competitive assay. Briefly Human HEVM recombinant protein (Sino Biological, 10334-H02H, 4 ug/ml, 100 ul/well) was coated to ELISA plate (Thermo Scientific, 469949, 4C overnight). A pre-mixture of HVEM antibody clone with seral dilution and 400 nM BTLA-His (R&D systems, 9235-BT-050) or LIGHT-His (SinoBiological, 10386-H07H) recombinant protein was made and added to the ELISA plate after blocking with 3% BSA (200 ul/well, RT 2 Hr) for 1 Hr at RT. The serial dilutions of HVEM antibody clone involve 7 different concentrations, with a 3-fold dilution performed start from 100 nM for BTLA or 325 nM for LIGHT competitive assay. The concentration was the final concentration. Plate was washed with PBST; diluted HRP-anti-His (Biolegend, 652504, 1:1000) with PBS containing 5% FBS was added 100 ul per well for 1 Hr at RT. TMB substrate (KPL, 52-00-00) 100 ul per well after washing and incubate at room temperature for 15 minutes; then stop the development by adding 100 ul stop solution (KPL, 50-85-06). Plate was read at 450 nm. The IC50 was calculated using GraphPad Prism software (GraphPad Software, Inc. San Diego, CA, USA).

B1: Ab_036 (H5S15-12A13A) (antibody, V domains shown)
VH: EVQLQQSGAELVKPGASVKLSCTASGFNIKDTYMHWVKQRPEQGLEWIGRIDPANGNTKFDPKFQGKATITADTSSNTAYLQLSSLTSEDTAVYYCASRGGSSFDYWGQGTTLTVSS
VL: DIVLTQSPASLAVSLGQRATISCKASQSVDYDGESYMNWYQQKPGQPPKLLIYAASNLDSGIPARFSGSGSGTDFTLNIHPVEEEDAATYYCQQSNEDPLTFGAGTKLELK
notes: also called Ab_36
- ELISA signal [1]: 0.079
- ELISA signal [2]: 3.26
- ELISA signal [3]: 0.046
- Kd [4]: 18.7 nM
- koff [4]: 0.0107 s⁻¹
- kon [4]: 571000 M⁻¹ s⁻¹
- IC50 [5]: 0.8 nM
- IC50 [6]: 18.7 nM

B3: Ab_072 (H5S20-15A13A) (antibody, V domains shown)
VH: B1 VH with F60Y, S98T, R99S, F104Y
VL: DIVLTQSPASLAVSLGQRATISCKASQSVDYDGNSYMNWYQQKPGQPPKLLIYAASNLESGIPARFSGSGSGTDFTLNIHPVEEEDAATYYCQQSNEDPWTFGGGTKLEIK
notes: also called Ab_72
- ELISA signal [1]: 0.062
- ELISA signal [2]: 3.36
- ELISA signal [3]: 0.045
- Kd [4]: 11.7 nM
- koff [4]: 0.0197 s⁻¹
- kon [4]: 1.69e+06 M⁻¹ s⁻¹
- IC50 [5]: 1.6 nM
- IC50 [6]: 252 nM

B4: Ab_080 (H5S20-27A23A) (antibody, V domains shown)
VH: EVQLQQSGTVLARPGASVKMSCKASGYSFTSYWMHWLKQRPGQGLEWIGAIYPGNSDTVFNQKFKGKAKLTAVTSATTAYMELSSLTNEDSAVYYCTKEPRTIEGAWFTYWGQGTLVTVSA
VL: DIVMTQSPSSLTVPAGEKVTMSCKSSQSLLNSENQKNYLTWYQQKPGQPPKLLIYWASTRESGVPDRFTGSGSGTDFTLTISSVQAEDLAVYYCQSDYSYPLTFGAGTKLELK
notes: also called Ab_80
- ELISA signal [1]: 2.26
- ELISA signal [2]: 3.07
- ELISA signal [3]: 0.048
- Kd [4]: 7.09 nM
- koff [4]: 0.00115 s⁻¹
- kon [4]: 162000 M⁻¹ s⁻¹
- IC50 [5]: 1.8 nM
- IC50 [6]: 37.3 nM

B5: Ab_078 (H5S20-45A34A) (antibody, V domains shown)
VH: EVQLQQSGAELVRSGASVKLSCAASGFNIKDYYMHWVKQRPEQGLEWIGWIDPENGDTEFAPKFQGKATLTADTSSNTAYLQLSSLTSEDTAVYYCNTRTLGYWGQGTLVTVSA
VL: QIVLTQSPALMSASPGEKVTMTCTASSSVSYMYWYQQKPRSSPKPWIYLTSNLASGVPARFSGSGSGTSYSLTISSMEAEDAATYYCQQWSSNPLTFGAGTKLELR
notes: also called Ab_78
- ELISA signal [1]: 0.063
- ELISA signal [2]: 3.08
- ELISA signal [3]: 0.046
- Kd [4]: 4.95 nM
- koff [4]: 0.0023 s⁻¹
- kon [4]: 466000 M⁻¹ s⁻¹
- IC50 [5]: 1.5 nM
- IC50 [6]: 14.5 nM

B7: Ab_066 (H5S20-1A1A) (antibody, V domains shown)
VH: EVKLVESGGGLVKPGGSLKLSCAASGFTFSSYAMSWVRQTPETRLEWVASISSGGDTFYRDSVKARFTISRDDVRDILYLQMSSLRSEDTAMYFCTRGGYGSSFVIWGQGTTLTVSS
VL: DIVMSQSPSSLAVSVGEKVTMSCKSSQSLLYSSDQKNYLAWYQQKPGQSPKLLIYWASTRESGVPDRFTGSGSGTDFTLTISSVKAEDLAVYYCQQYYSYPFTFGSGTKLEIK
notes: also called Ab_66
- ELISA signal [1]: 0.883
- ELISA signal [2]: 3.28
- ELISA signal [3]: 0.044
- Kd [4]: 9.59 nM
- koff [4]: 0.00247 s⁻¹
- kon [4]: 258000 M⁻¹ s⁻¹
- IC50 [5]: 1.5 nM
- IC50 [6]: 10.4 nM

The remaining binders from weak to strong by Kd [4], led by results:

- ELISA signal [1]: 0.987
- ELISA signal [2]: 3.07
- ELISA signal [3]: 0.044
- Kd [4]: 10.7 nM
- koff [4]: 0.00355 s⁻¹
- kon [4]: 333000 M⁻¹ s⁻¹
- IC50 [5]: 1.5 nM
- IC50 [6]: 8.7 nM
B6: Ab_064 (H5S20-6A6A) (antibody, V domains shown)
VH: EVKLVESGGGLVKPGGSLKLSCAASGFTFSSFAMSWVRQTPEKRLEWVASISSGGNTYYPDNVKGRFTISRDNAGNILYLQMSSLRSEDTAMYYCARGGYGSSYVIWGQGTTLTVSS
VL: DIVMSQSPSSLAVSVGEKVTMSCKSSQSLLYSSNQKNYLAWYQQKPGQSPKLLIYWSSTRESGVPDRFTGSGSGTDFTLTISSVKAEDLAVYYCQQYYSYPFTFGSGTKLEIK
notes: also called Ab_64

- ELISA signal [1]: 0.058
- ELISA signal [2]: 3.22
- ELISA signal [3]: 0.043
- Kd [4]: 3.92 nM
- koff [4]: 0.00148 s⁻¹
- kon [4]: 378000 M⁻¹ s⁻¹
- IC50 [5]: 1.1 nM
- IC50 [6]: 15.3 nM
B2: Ab_043 (H5S15-29A24A) (antibody, V domains shown)
VH: EVQLQQSGAELVRPGALVKLSCKASGFNIKDDYMHWVKQRPEQGLEWIGWIDPENGNTIYDPKFQGKASITADTSSNTAYLQLSSLTSEDTAVYYCARGYSSSPYWGQGTLVTVSA
VL: B1 VL with E34N, G45R, D59E, S67R, L100F, A104S, L110I
notes: also called Ab_43
